{
  "source": "patent US11319368B2",
  "about": "“Treatment of hepatotoxicity with IL-11 antibody” (Singapore Health Services PTE LTD., priority 2019, dated 2022)",
  "molecules": {"B1": {"name": "rhIL11: Recombinant human IL11 (UniProtKB:P20809, Genscript) (protein)", "chain": "PGPPPGPPRVSPDPRAELDSTVLLTRSLLADTRQLAAQLRDKFPADGDHNLDSLPTLAMSAGALGALQLPGVLTRLRADLLSYLRHVQWLRRAGGSSLKTLEPELGTLQARLDRLLRRLQLLMSRLALPQPPPDPPAPPLAPPSSAWGGIRAAHAILGGLHLTLDWAVRGLLLLKTRL"}},
  "key": {"[1]": {"system": "LPS-induced hepatic injury (acute endotoxemia)", "conditions": "150 μg/kg, IP; cited from earlier work"}, "[2]": {"system": "early intestinal radiation injury", "conditions": "2 mg/kg/d from 2 days prior until 2 weeks after irradiation; cited from earlier work"}, "IRI": {"system": "IRI", "conditions": "500 μg/kg, IP one hour prior to IRI; cited from earlier work"}, "heart": {"system": "heart", "conditions": "8 μg/kg, IV 24 hours after ligation, then every 24 hours for 4 days; cited from earlier work"}, "kidney": {"system": "kidney", "conditions": "100-1000 μg/kg, IP; 10 minutes prior to or 30-60 minutes following IR; cited from earlier work"}, "[3]": {"system": "chronic Hepatitis C and late stage liver disease", "conditions": "5 μg/kg, daily for 12 weeks, SC; 20 patients; cited from earlier work"}, "IL-11Rα": {"molecular_target": "IL-11Rα", "conditions": "low affinity; cited from earlier work"}, "[4]": {"system": "primary human hepatocytes", "test": "IL11 effect on GSH and NOX4 in primary human hepatocytes", "assay_type": "cell-based"}, "mouse hepatocytes [5]": {"system": "mouse hepatocytes", "assay_type": "cell-based", "conditions": "24 h", "text": "(§1) Mouse hepatocytes (ABC-TC3928, AcceGen Biotech) were maintained in mouse hepatocyte medium (ABC-TM3928, AcceGen Biotech) supplemented with 1% Penicillin-streptomycin."}, "rheumatoid arthritis": {"system": "rheumatoid arthritis", "conditions": "up to 15 μg/kg weekly for 12 weeks (SC); cited from earlier work"}, "human hepatocytes": {"system": "human hepatocytes", "test": "rhIL11 versus rmIL11 on human hepatocytes", "assay_type": "cell-based", "conditions": "10 ng ml^-1"}, "mouse livers": {"system": "mouse livers", "conditions": "500 μg/kg, IV prior to WI/Rp injury; cited from earlier work"}, "intestinal inflammation": {"system": "intestinal inflammation", "conditions": "mucosal sheets 10-10,000 ng/ml; rats 33 μg/kg alternate days 1 or 2 weeks; cited from earlier work"}, "[6]": {"system": "Concanavalin A-induced T-cell-mediated hepatotoxicity", "conditions": "50-500 μg/kg, IP 2 hours prior to Concanavalin A; cited from earlier work"}, "small intestinal mucosa": {"system": "small intestinal mucosa", "conditions": "250 μg/kg; cited from earlier work"}, "[7]": {"system": "clonogenic cells in intestinal crypts", "conditions": "100 μg/kg, SC prior to and after cytotoxic exposure; cited from earlier work"}, "[8]": {"system": "epithelial cell integrity", "conditions": "oral 0.5 mg/kg/day, 12 days; cited from earlier work"}, "[9]": {"system": "primary human hepatocytes", "test": "IL11 stimulation of primary human hepatocytes: ERK, JNK, CASP3, PI staining", "assay_type": "cell-based", "text": "PI^+ve cells were quantified with the flow cytometer (Fortessa, BD Biosciences) and analyzed with FlowJo version 7 software (TreeStar)."}, "[10]": {"system": "primary human hepatocytes", "test": "IL11 stimulation of primary human hepatocytes with sgp130 or sIL11Rα", "assay_type": "cell-based", "conditions": "IL11 0.625 ng/ml to 20 ng/ml"}, "GVHD": {"system": "GVHD", "conditions": "250 μg/kg, SC, twice daily; cited from earlier work"}, "mouse hepatocytes [11]": {"system": "mouse hepatocytes", "test": "rhIL11 versus rmIL11 on mouse hepatocytes", "assay_type": "cell-based", "text": "as §1"}, "[12]": {"system": "collagen-induced arthritis", "conditions": "0.3-100 μg/mouse/day, IP, 10 days; cited from earlier work"}, "active Crohn's disease": {"system": "active Crohn's disease", "conditions": "1 mg, weekly for 12 weeks, SC; 51 patients; cited from earlier work"}, "[13]": {"system": "murine primary macrophages", "conditions": "10-100 ng/ml; cited from earlier work"}, "[14]": {"system": "activated murine CD4+ve T-cells", "conditions": "1-500 ng/ml; cited from earlier work"}, "mIL11Rα1": {"molecular_target": "T1, mIL11Rα1 (Mus musculus, UniProt Q64385)", "T1 construct": "purchased SinoBiological 50075-M08H", "T1 sequence (Q64385 24-432)": "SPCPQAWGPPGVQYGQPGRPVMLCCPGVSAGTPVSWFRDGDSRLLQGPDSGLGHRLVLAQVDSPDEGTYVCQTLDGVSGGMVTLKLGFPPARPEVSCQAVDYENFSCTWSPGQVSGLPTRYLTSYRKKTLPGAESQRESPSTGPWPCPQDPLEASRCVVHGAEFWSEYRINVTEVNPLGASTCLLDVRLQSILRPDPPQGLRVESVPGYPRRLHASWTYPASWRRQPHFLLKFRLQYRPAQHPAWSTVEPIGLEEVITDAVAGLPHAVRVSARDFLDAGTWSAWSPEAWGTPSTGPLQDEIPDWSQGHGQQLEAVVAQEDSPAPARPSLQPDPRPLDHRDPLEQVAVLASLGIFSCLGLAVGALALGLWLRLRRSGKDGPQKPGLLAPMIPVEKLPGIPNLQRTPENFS", "test": "Competition ELISA, biotinylated rmIL11 binding to mIL11Rα1", "conditions": "two-fold dilutions from 5 μg ml^-1", "protocol": "Mouse IL11Rα (1 μg ml^−1 in PBS) was coated on a 96-well plate (overnight at 4° C.) and then blocked with blocking buffer (1% BSA in PBS containing 0.05% Tween20). Biotinylated mouse Il11 was prepared using Lightning-Link Rapid Biotin type A kit (Expedeon) according to the manufacturer's instructions. RhIL11 or rmIl11 was two-fold serially diluted in blocking buffer (starting at 5 μg ml^−1) and mixed with 0.01 μg ml^−1 biotinylated mouse IL11. The mixture of biotinylated mouse IL11 and either rhIL11 or rmIL11 was added into the coated plate and incubated for 1 h at RT. Color development was performed by adding Streptavidin-HRP (1:1000 in blocking buffer) and TMB chromogen solution (002023, ThermoFisher Scientific)."}, "[15]": {"system": "Borrelia burgdorferi-infected mice", "conditions": "0.1-2 μg/mouse/day, 5 days/week for 3 weeks; cited from earlier work"}},
  "data": [
    {"molecule": "B1", "values": [
      {"measurement": "LPS-induced hepatic injury", "setting": "[1]", "result": "significant protective role in LPS-induced hepatic injury (acute"},
      {"measurement": "early intestinal radiation injury", "setting": "[2]", "result": "The authors conclude that IL11 ameliorates early intestinal"},
      {"measurement": "hepatoprotection in IRI", "setting": "IRI", "result": "Hepatoprotective effects of rhIL11 in mice subjected to a single"},
      {"measurement": "post-MI scar volume", "setting": "heart", "result": "then consecutively every 24 hours for 4 days reduces post-MI"},
      {"measurement": "renoprotection", "setting": "kidney", "result": "The authors conclude that IL11 is renoprotective based on pre-"},
      {"measurement": "serum ALT by study end", "setting": "[3]", "result": "Lower serum ALT was observed by study end. The most"},
      {"measurement": "Kd", "setting": "IL-11Rα", "result": "~10", "unit": "nM"},
      {"measurement": "GSH depletion", "setting": "[4]; dose range and time course", "result": "stimulated dose-dependent GSH depletion"},
      {"measurement": "NOX4 expression", "setting": "[4]; rhIL11 10 ng ml^-1", "result": "NOX4 upregulation"},
      {"measurement": "GSH levels in rmIL11 stimulated mouse cells", "setting": "mouse hepatocytes [5]", "result": "clear, dose-dependent effects of rhIL11 in restoring GSH levels"},
      {"measurement": "patients with mild adverse effect (erythema with/without induration) at the injection site", "setting": "rheumatoid arthritis", "result": "with/without induration) at the injection site was seen in 60.6% of"},
      {"measurement": "therapeutic benefit", "setting": "rheumatoid arthritis", "result": "no therapeutic benefit"},
      {"measurement": "ERK and JNK signaling and hepatocyte death", "setting": "human hepatocytes", "result": "stimulated ERK and JNK signaling and hepatocyte death"},
      {"measurement": "protection from WI/Rp injury", "setting": "mouse livers", "result": "injury protects mouse livers. In vitro, pre-treatment with rhIL11"},
      {"measurement": "epithelial transport and inflammation", "setting": "intestinal inflammation", "result": "acts as a modulator of epithelial transport or as an anti-"},
      {"measurement": "liver necrosis", "setting": "[6]", "result": "Concanavalin A-induced T-cell-mediated hepatotoxicity reduces"},
      {"measurement": "survival", "setting": "[6]", "result": "liver necrosis and enhanced survival in mice."},
      {"measurement": "recovery from chemotherapy and radiation-induced mucosal damage", "setting": "small intestinal mucosa", "result": "Administration of rhIL11 (250 μg/kg) promotes recovery from"},
      {"measurement": "clonogenic cells in intestinal crypts", "setting": "[7]", "result": "cytotoxic exposure, protects clonogenic cells in intestinal crypts"},
      {"measurement": "epithelial cell integrity during cyclophosphamide chemotherapy", "setting": "[8]", "result": "The authors suggest that IL11 maintains epithelial cell integrity"},
      {"measurement": "hepatocyte cell death, FACS (PI+ve cells)", "setting": "[9]; 24 h", "result": "dose-dependent IL11-induced hepatocyte cell death"},
      {"measurement": "ERK and JNK activation, concurrent with CASP3 cleavage", "setting": "[9]; time course", "result": "late (>6 h) and sustained ERK and JNK activation"},
      {"measurement": "hepatocyte cell death (ALT)", "setting": "[10]", "result": "dose-dependently (0.625 ng/ml to 20 ng/ml) caused hepatocyte cell death"},
      {"measurement": "Graft-vs-Host-Disease", "setting": "GVHD", "result": "The authors conclude that IL11 prevents Graft-vs-Host-Disease"},
      {"measurement": "ERK and JNK phosphorylation, CASP3 cleavage", "setting": "mouse hepatocytes [11]; 10 ng ml^-1, 24 h", "result": "had no effect"},
      {"measurement": "mouse hepatocyte cell death (ALT in supernatant)", "setting": "mouse hepatocytes [11]; 24 h", "result": "did not"},
      {"measurement": "inflammation", "setting": "[12]", "result": "days) reduces inflammation in a murine model of collagen-"},
      {"measurement": "efficacy compared to prednisolone", "setting": "active Crohn's disease", "result": "inferior as compared to prednisolone treatment."},
      {"measurement": "secretion of pro-inflammatory cytokines by macrophages", "setting": "[13]", "result": "The authors conclude that IL11 inhibits the secretion of pro-"},
      {"measurement": "immune response of CD4+ve T-cells", "setting": "[14]", "result": "CD4+ve T-cells and modulates, not represses, the immune"},
      {"measurement": "competition with rmIL11 for binding to mIL11Rα1", "setting": "mIL11Rα1", "result": "competed with rmIL11 for binding to mIL11Rα1"},
      {"measurement": "arthritis and carditis", "setting": "[15]", "result": "weeks) reduces arthritis, but not carditis, in Borrelia burgdorferi-"}
    ]}
  ]
}
